The RNAGym collection of RNA variant scans (doi:10.1073/pnas.2313332121)
Fewer inactive variants are shown than the library holds.

B1: TPR 5TU (parent)
chain: GGAUCUUCUCGAUCUAACAAAAAAGACAAAUCUGCCACAAAGCUUGAGAGCAUCUUCGGAUGCAGAGGCGGCAGCCUUCGGUGGCGCGAUAGCGCCAACGUUCUCAACUAUGACACGCAAAACGCGUGCUCCGUUGAAUGGAGUUUAUCAUG

Variants of: B1
Experiment: polymerase ribozyme fitness, log enrichment relative to wild type (log ratio); higher = more active; in vitro selection for triplet polymerase activity
Outline: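 Each subunit of a heterodimeric triplet polymerase ribozyme was mutagenized into a library by PCR, transcribed, and subjected to one round of in vitro selection, run in triplicate. Libraries were annealed with a biotinylated primer, the partner subunit and triplets, incubated frozen at −7 °C, and extended constructs were gel-excised, captured on streptavidin beads and recovered by RT-PCR. Input and output libraries were sequenced on Illumina, keeping genotypes with ≥10 input reads and ≥1 read per output. Fitness is log base 2 of genotype enrichment divided by wild-type enrichment, from inverse-variance-weighted replicate averages.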

| Variant | polymerase ribozyme fitness (log ratio) |
| --- | --- |
| A39U G58C G88A | ≤ -4.2 |
| C38U G140U | -2.77 |
| A39C C79G G92A | -3.32 |
| C38U G83U C123U U148C | -2.21 |
| A39U U55A G83U C95G A115C C149G | ≤ -4.2 |
| A40C A119C | 0.851 |
| A40C C96U U144G U151G | -3.73 |
| A40C A89G A150G | -3.25 |
| A39G C57A C99G | -3.15 |
| A39U G48C G67A C85G G86U G88A G92A C118G | ≤ -4.2 |
| A40C C96U | -0.579 |
| C38U U44A G70C U134G | ≤ -4.2 |
| A39C A52G C123G | -2.84 |
| A40C A64G G83U G133C A138C | ≤ -4.2 |
| A39G A137G | -3.57 |
| A39U C51U C54U A60G U82G A98C | -3.88 |
| A40C C96U A122G G124C | -0.809 |
| A39G G50C C51G G58A C93G U139G | ≤ -4.2 |
| A39U A41C A98G | -2.72 |
| C38U U45A G84U C129A A142C | ≤ -4.2 |
| C38U U56A A147C | -0.21 |
| A39G C63G G70C C87U A91G C99A A120G | ≤ -4.2 |
| A40C C93A | -1.96 |
| A39G C99A | -3.78 |

| Variant | polymerase ribozyme fitness (log ratio) |
| --- | --- |
| A40C C96G A119G | 0.217 |
| A39G G83A G141C | -3.09 |
| A39C U44G C75U C95U A119U G128U | ≤ -4.2 |
| A39G A73G U109A A119U | -3.91 |
| A40C C54U G141U | 0.7 |
| C38U G84U C87G U144C C149G | ≤ -4.2 |
| A40C C125A | -0.0259 |
| A39U G117U | -1.04 |
| A40C A41C A49C A91U | ≤ -4.2 |
| A40C C51U C57A G94U C114G A150G | ≤ -4.2 |
| C38U G62A A113G G136A | -2.45 |
| A39U U56A C93U | -3.55 |
| A39C C51U C105U C118U | -3.78 |
| A40C C51A G86C U139C | ≤ -4.2 |
| A39U U77G G124C U135G U146A | ≤ -4.2 |
| A39G A91G A137G | ≤ -4.2 |
| A40C A41U C99U C125A | -2.04 |
| C38U G50A A73U G126U | -3.21 |
| A39U A52U C76G G83A | ≤ -4.2 |
| A39G C54G C57A | -3.22 |
| A39C G65C G83C G143A A150U | ≤ -4.2 |
| C38U U61C U145A | -2.49 |
| A39C G59C G86A | -3.73 |
| A39C C54G C93A | ≤ -4.2 |

| Variant | polymerase ribozyme fitness (log ratio) |
| --- | --- |
| A39U U78A G83A G84C A115U U134C G136U | ≤ -4.2 |
| A40C C85A G92U A119C A147C | ≤ -4.2 |
| A39G A89G G92A G141C | -3.85 |
| A39U C51U U61G A89U | ≤ -4.2 |
| C38U C116G U148A | -3.89 |
| C38U G46A C95A | -0.705 |
| A39G C105G | -3.19 |
| A39G U101C | -1.89 |
| A39U C76A G86C G126A C132U U134A | ≤ -4.2 |
| A39G C57G C105G A147U | -3.4 |
| C38U U56A A60U C95A | -1.13 |
| C38U U61G G92U C116G G140A U144C | ≤ -4.2 |
| A40C C87U | -0.91 |
| A40C C87A | -3.55 |
| A39C C85U C149U | -2.98 |
| C38U U55G G83U U135C | -1.98 |
| A39C G62A A66U U134G G143A | ≤ -4.2 |
| C38U G48A C87A | ≤ -4.2 |
| A40C G42A A49G G62C C93A | ≤ -4.2 |
| A39C G62U G70A A115G | ≤ -4.2 |
| A39U G46A C93G A119U U139G | ≤ -4.2 |
| A39U C69U C75U G84U U127G | ≤ -4.2 |
| A39G A52C C54G C85U C125U G126U A147C | ≤ -4.2 |
| A40C C75U C116U A119C | -1.75 |

| Variant | polymerase ribozyme fitness (log ratio) |
| --- | --- |
| A40C A122G | 0.759 |
| A40C C75G C85A G141U | ≤ -4.2 |
| A39G G70A U77G G141A A142C | ≤ -4.2 |
| A39G G59A C116U U144C | -4.19 |
| A39C A40C A41C G42C G46U G59C C87A U90G U127G G152U | ≤ -4.2 |
| A39U G81A C99U U104C G117A | -3.48 |
| A39G G42A C87G | ≤ -4.2 |
| A39U U53A A91G A97G U111G | -4.05 |
| A40C C93A C99U G133C | -3.98 |
| A39C A64C C93U | ≤ -4.2 |
| A39C G133C U146A | -3.57 |
| A39C A40C G70C G88C U109C | ≤ -4.2 |
| A39C C85A C118A | -3.96 |
| C38U G84U | -2.42 |
| A40C C76U C95A C131G G141U | -1.68 |
| A40C C63U U82G G83C C96G A120C A121U U144A | -0.868 |
| A39U C43A C75G C87U C118U | ≤ -4.2 |
| C38U G83C | -0.262 |
| A40C A52G U82A G92U A106U | -3.38 |
| C38U U53G C96G | -1.73 |
| C38U U45A G92C | -4.13 |
| A39C C118G | -2.92 |
| A39U G58C G74U A91G C123G G133A U146C | ≤ -4.2 |
| A39G G48A C54A G88A C125U U134G U145C | ≤ -4.2 |

| Variant | polymerase ribozyme fitness (log ratio) |
| --- | --- |
| A39U G74U G81C A91U A98G C99U G124A | ≤ -4.2 |
| A39G G80A G126U A138G | ≤ -4.2 |
| A39C A41C A115G G124A | -3.47 |
| A39G C51U A52U G74A | ≤ -4.2 |
| A40C A41C G59A G70U G84A C85A C105G G141C G143U | ≤ -4.2 |
| A39G G42A | -3.64 |
| A39U C72A G83A A137U | ≤ -4.2 |
| A40C A52G C79A C85U C99A A106G A142U G152U | ≤ -4.2 |
| A39G A60C G67U C99G G143C | ≤ -4.2 |
| A39G G94C | -2.32 |
| A39U G100A A110G A150U | ≤ -4.2 |
| A39U U53A C75G G86U U146G | ≤ -4.2 |
| C38U U55A A60G C75G C76G A115U A122U C125G | ≤ -4.2 |
| A39C C54A G81A | -3.05 |
| A39G U45A A49U U61A C75U G83U C129G U144G | ≤ -4.2 |
| A39U G74A C85U A91C C125A | ≤ -4.2 |
| A39U C95U C96A G124A | -3.2 |
| A39U G86A | -3.06 |
| A39G U53A G58C C72G C95G C103G | ≤ -4.2 |
| C38U G83U C149G A150C | ≤ -4.2 |
| A39U G86U C114U A120U G140A | ≤ -4.2 |
| A39U U44A C79G C132G U139A | ≤ -4.2 |
| A39U C43U C85U G117U G126C C132G | ≤ -4.2 |
| A39U A47U C96U A122G G124A | -3.16 |

| Variant | polymerase ribozyme fitness (log ratio) |
| --- | --- |
| C38U U55G C85A | -2.3 |
| A39C U82G G83C G133C | ≤ -4.2 |
| A39C G59A C87A U139G | ≤ -4.2 |
| C38U G88C G126C A147C | ≤ -4.2 |
| C38U U145A | 0.631 |
| A39C A89U C116U | -2.02 |
| A39U G80C A91U | ≤ -4.2 |
| A39U C54U U61A C93U A106U | ≤ -4.2 |
| A39G G59C G71A U101C A115G G140U | ≤ -4.2 |
| A39U C76G G92U C108U | ≤ -4.2 |
| A39C A47C G62A C85U A98U U134A | ≤ -4.2 |
| A40C C75G U82G C93G A138G G140C | ≤ -4.2 |
| A40C C95U | -0.646 |
| A39G U134G | -3.86 |
| C38U G81C U111G A138G | ≤ -4.2 |
| A39G C103G G126U | ≤ -4.2 |
| A39G A41G A49G G83C U145A | -3.94 |
| A39U C85U | -2.27 |
| A40C C57A U139C | -3.43 |
| A39U C93A C105G A113U C114G | ≤ -4.2 |
| A40C C57U A60G U61A | -2.29 |
| C38U U56A G70C A91U U104A A107C U145A | ≤ -4.2 |
| A39U A41U U56A G71A | ≤ -4.2 |
| A40C C54U U56A G126U | -0.0276 |

| Variant | polymerase ribozyme fitness (log ratio) |
| --- | --- |
| A39U G59C G83U | -2.72 |
| A39C A52G | -2.32 |
| A39C C96G A137U | ≤ -4.2 |
| C38U U55A C85U | -0.272 |
| A39U C43U U111G | ≤ -4.2 |
| A39U G84C | -3.33 |
| A39C C75U G83A | ≤ -4.2 |
| A40C C69G G80A | -0.716 |
| A39U U55G G88A U104A U135A U144C C149A | ≤ -4.2 |
| A39U A64U C87G | ≤ -4.2 |
| A39C C54A G65C C93A G124U A138C | ≤ -4.2 |
| A39C U56A G59C | -2.08 |
| C38U U61A A106C G141A | -3.01 |
| A39G G88A A142U | ≤ -4.2 |
| C38U U55C A64U G94A C103A C125U | ≤ -4.2 |
| A39G A47C C123U A150G G152A | -3.23 |
| A39U C85G C96A A107G | ≤ -4.2 |
| C38U G58U C85U C108A U134A U144C | ≤ -4.2 |
| A39G G58U U82C C108A U146A A150C | ≤ -4.2 |
| A39C G81A C99U C103G A107G C125U | ≤ -4.2 |
| C38U U55G A119G | -0.675 |
| A40C A49U U56A C57A G88C U135A A137U | ≤ -4.2 |
| A40C A113U C118U G136A | -2.68 |
